Measurements reported in US20110263014.

What was measured:
[1] = molecular target: Oct4
[2] = molecular target: Sox2
[3] = molecular target: in vitro-translated human Nanog (hNanog), Q9H9S0
[4] = molecular target: T1, mouse Nanog (mNanog), Q80Z64
T1 chain: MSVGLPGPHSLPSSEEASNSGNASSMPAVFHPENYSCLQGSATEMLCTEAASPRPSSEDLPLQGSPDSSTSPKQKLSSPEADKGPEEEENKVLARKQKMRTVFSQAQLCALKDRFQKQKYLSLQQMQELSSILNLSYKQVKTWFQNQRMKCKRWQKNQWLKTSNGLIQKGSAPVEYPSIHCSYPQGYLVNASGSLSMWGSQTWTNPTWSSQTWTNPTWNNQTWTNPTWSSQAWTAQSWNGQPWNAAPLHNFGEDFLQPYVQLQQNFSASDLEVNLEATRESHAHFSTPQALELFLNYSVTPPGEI

Sequence of in vitro-translated human Nanog (hNanog), Q9H9S0 (Q9H9S0 whole entry): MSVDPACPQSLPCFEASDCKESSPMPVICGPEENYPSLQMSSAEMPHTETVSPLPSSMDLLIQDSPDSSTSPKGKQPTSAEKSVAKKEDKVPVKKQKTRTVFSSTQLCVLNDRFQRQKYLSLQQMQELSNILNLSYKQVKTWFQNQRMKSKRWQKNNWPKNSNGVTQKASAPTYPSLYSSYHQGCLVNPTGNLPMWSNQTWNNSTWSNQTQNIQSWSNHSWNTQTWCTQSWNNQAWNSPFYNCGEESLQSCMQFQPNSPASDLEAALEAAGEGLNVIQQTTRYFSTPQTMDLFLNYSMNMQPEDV

B1: recombinant active caspase-3 (protein)
chain: SGISLDNSYKMDYPEMGLCIIINNKNFHKSTGMTSRSGTDVDAANLRETFRNLKYEVRNKNDLTREEIVELMRDVSKEDHSKRSSFVCVLLSHGEEGIIFGTNGPVDLKKITNFFRGDRCRSLTGKPKLFIIQACRGTELDCGIETDSGVDDDMACHKIPVEADFLYAYSTAPGYYSWRNSKDGSWFIQSLCAMLKQYADKLEFMHILTRVNRKVATEFESFSFDATFHAKKQIPCIVSMLTKELYFYH
In the case of B1, the “in vitro caspase-3 cleavage assay” value [1] is reported as “remained uncleaved (data not shown)”, the “in vitro caspase-3 cleavage assay” value [2] is reported as “remained uncleaved (data not shown)” and the “in vitro caspase-3 cleavage assay” value [3] is reported as “Caspase-3 cleaved human (h) Nanog in vitro”. The “cleavage of immunoprecipitated mNanog by recombinant caspase” value [4] was “Only caspase-9 effectively cleaved mNanog into a 27 kDa fragment” and the “in vitro caspase-3 cleavage assay” value [4] was “very little or no cleavage of recombinant mNanog by caspase-3 was observed”.
